We go through five molecules from PMC2811003 (Nucleic Acids Research, 2009).

The target in data set [1] is T1, His-tagged Neisseria gonorrhoeae PriA (Neisseria gonorrhoeae, UniProt Q5F6V8 1-729).
T1 sequence (looked up): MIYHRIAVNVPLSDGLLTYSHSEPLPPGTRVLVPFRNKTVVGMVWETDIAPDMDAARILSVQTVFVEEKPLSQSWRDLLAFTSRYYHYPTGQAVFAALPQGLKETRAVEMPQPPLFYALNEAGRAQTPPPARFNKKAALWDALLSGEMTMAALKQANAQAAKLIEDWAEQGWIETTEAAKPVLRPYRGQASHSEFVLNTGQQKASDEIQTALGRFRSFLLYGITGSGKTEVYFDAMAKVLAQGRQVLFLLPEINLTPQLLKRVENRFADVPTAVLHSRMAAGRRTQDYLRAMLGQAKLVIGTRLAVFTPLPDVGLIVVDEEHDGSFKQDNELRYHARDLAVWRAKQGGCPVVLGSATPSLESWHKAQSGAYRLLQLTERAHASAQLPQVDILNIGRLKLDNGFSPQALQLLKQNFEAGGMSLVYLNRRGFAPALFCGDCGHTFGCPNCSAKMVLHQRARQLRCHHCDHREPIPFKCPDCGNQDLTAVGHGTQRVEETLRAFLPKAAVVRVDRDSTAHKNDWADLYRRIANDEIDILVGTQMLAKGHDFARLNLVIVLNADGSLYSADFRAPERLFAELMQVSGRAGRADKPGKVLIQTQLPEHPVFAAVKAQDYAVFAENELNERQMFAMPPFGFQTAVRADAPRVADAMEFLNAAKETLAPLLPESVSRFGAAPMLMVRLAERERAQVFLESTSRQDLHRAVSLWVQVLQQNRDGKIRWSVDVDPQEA
Kind of data set: pull-down.

The data set “crystal structure” deals with the molecule itself. Kind of data set: crystal structure.
For data set [2], the target named is T2, Neisseria gonorrhoeae PriA (Neisseria gonorrhoeae, UniProt Q5F6V8 1-729).
T2 sequence: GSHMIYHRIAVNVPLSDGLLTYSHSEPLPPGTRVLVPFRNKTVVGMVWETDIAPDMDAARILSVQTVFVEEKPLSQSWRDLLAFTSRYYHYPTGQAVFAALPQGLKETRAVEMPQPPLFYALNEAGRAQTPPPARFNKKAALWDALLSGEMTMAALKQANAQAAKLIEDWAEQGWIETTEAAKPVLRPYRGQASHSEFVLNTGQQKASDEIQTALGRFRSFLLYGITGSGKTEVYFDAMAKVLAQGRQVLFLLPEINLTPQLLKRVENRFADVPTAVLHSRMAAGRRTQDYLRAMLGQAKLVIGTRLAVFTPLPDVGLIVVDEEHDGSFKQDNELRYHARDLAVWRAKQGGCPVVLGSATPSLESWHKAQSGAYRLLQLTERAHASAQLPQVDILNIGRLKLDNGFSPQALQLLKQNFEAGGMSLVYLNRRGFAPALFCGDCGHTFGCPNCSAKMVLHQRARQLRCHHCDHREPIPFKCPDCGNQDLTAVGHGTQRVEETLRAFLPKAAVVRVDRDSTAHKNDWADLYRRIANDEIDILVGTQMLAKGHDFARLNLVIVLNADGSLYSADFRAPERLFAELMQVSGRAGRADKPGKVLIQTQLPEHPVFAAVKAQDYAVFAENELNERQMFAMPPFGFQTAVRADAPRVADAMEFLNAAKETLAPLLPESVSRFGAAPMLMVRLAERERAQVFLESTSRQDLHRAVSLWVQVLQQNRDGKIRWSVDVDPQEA
Kind of data set: fluorescence polarisation.

A further data set addresses T3, PriB Y21A (Neisseria gonorrhoeae FA1090, UniProt Q5F924 1-100, Y21A).
T3 sequence: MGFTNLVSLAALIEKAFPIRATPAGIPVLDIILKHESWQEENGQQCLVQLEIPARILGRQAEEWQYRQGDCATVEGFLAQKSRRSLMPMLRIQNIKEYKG
Kind of data set: fluorescence anisotropy.

A further data set deals with T4, PriB wild type (Neisseria gonorrhoeae FA1090, UniProt Q5F924 1-100).
T4 sequence: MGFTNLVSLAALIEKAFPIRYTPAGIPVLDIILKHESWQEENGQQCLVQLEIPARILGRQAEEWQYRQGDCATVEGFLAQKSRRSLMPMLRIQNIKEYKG
Kind of data set: fluorescence anisotropy.

In a further data set the target is T5, PriB E41A (Neisseria gonorrhoeae FA1090, UniProt Q5F924 1-100, E41A).
T5 sequence: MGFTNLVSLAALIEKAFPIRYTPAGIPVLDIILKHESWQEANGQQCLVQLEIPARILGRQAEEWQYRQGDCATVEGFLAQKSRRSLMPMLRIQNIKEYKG
Kind of data set: fluorescence anisotropy.

B1: Neisseria gonorrhoeae PriB (natural protein)
chain: GSHMGFTNLVSLAALIEKAFPIRYTPAGIPVLDIILKHESWQEENGQQCLVQLEIPARILGRQAEEWQYRQGDCATVEGFLAQKSRRSLMPMLRIQNIKEYKG
Consider B1, for which, in data set [1], the binding result was “binds”. Moreover, in “crystal structure”, the “stoichiometry N” value stood at 2.

B2: FITC-labeled Neisseria gonorrhoeae PriB (natural protein)
chain: GSHMGFTNLVSLAALIEKAFPIRYTPAGIPVLDIILKHESWQEENGQQCLVQLEIPARILGRQAEEWQYRQGDCATVEGFLAQKSRRSLMPMLRIQNIKEYKG
modifications: FITC (fluorescein isothiocyanate) label, 0.34 FITC per PriB dimer; labeled residue not stated
Take B2: the Kd in data set [2] is 137 nM. In the case of GCCGTGATCACCAATGCAGATTGACGAACCTTTGCC (ssDNA) [36-base fluoro-ssDNA], the results for the Kd with PriB Y21A, with PriB wild type and with PriB E41A were 641 ± 41 nM, 475 ± 20 nM and 139 ± 26 nM, respectively.

AAGCACAATTACCCACGC (ssDNA) [18-base fluoro-ssDNA] displayed a Kd with PriB wild type of 662 ± 37 nM. In turn, GCCGTGATCACCAATGCAGATTGACGAACCTTTGCTCCAGTAACC (ssDNA) [45-base fluoro-ssDNA] had a Kd with PriB wild type of 1020 ± 34 nM.
